Assay results taken from publication doi:10.1101/2025.04.02.646830 (bioRxiv, 2025).
* marks the point of attachment. 6xHis = N-terminal hexahistidine tag, N[C@@H](Cc1c[nH]cn1)C(=O)N[C@@H](Cc1c[nH]cn1)C(=O)N[C@@H](Cc1c[nH]cn1)C(=O)N[C@@H](Cc1c[nH]cn1)C(=O)N[C@@H](Cc1c[nH]cn1)C(=O)N[C@@H](Cc1c[nH]cn1)C(=O)*

T1: FtsA (E. coli, UniProt P0ABH0 1-420)
T1 sequence (looked up): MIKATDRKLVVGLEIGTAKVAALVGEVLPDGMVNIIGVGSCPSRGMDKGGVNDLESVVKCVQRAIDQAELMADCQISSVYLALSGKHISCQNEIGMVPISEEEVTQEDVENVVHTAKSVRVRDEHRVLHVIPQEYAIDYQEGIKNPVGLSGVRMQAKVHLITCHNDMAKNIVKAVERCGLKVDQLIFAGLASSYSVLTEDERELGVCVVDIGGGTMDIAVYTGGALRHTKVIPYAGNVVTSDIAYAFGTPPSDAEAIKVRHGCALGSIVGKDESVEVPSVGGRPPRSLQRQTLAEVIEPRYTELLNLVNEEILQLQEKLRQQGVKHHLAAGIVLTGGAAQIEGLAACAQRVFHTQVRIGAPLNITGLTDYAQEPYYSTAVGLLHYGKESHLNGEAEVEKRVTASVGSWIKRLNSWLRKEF


Target: T1, FtsA
Experiment: TIRF microscopy of FtsZ membrane recruitment on supported lipid bilayers

binding result | Binder
binds | ^N-pepPBP1b (residues 1-64) peptide, N-terminal 6x-His tag, C-terminal cysteine, labelled with cyanine 5 (peptide) peptide: 6xHis-MAGNDREPIGRKGKPTRPVKQKVSRRRYEDDDDYDDYDDYEDEEPMPRKGKGKGKGRKPRGKRGC(sulfo‑cyanine5‑maleimide)
binds | Alexa Fluor 488-labeled FtsZ (natural protein, E. coli, UniProt P0A9A6 1-383, looked up, Alexa Fluor 488 label (site not stated)) MFEPMELTNDAVIKVIGVGGGGGNAVEHMVRERIEGVEFFAVNTDAQALRKTAVGQTIQIGSGITKGLGAGANPEVGRNAADEDRDALRAALEGADMVFIAAGMGGGTGTGAAPVVAEVAKDLGILTVAVVTKPFNFEGKKRMAFAEQGITELSKHVDSLITIPNDKLLKVLGRGISLLDAFGAANDVLKGAVQGIAELITRPGLMNVDFADVRTVMSEMGYAMMGSGVASGEDRAEEAAEMAISSPLLEDIDLSGARGVLVNITAGFDLRLDEFETVGNTIRAFASDNATVVIGTSLDPDMNDELRVTVVATGIGMDKRPEITLVTNKQVQQPVMDRYQQHGMAPLTQEQKPVAKVVNDNAPQTAKEPDYLDIPAFLRKQAD
